This note sets out measurements from publication PMC3800195 (Molecular microbiology, 2010).

This data set deals with the molecule itself. Put plainly: crystal structure.

B1: IsdI (enzyme, Staphylococcus aureus)
chain: MFMAENRLQLQKGSAEETIERFYNRQGIETIEGFQQMFVTKTLNTEDTDEVKILTIWESEDSFNNWLNSDVFKEAHKNVRLKSDDDGQQSPILSNKVFKYDIGYHYQK
In the case of B1, the binding result was “binds”.
